Source: patent US20210340273A1 (INHLBRX, published 2021)
Each block holds one binder with its values, some of them ahead of it.

How the values were obtained:
[1] = target: T1, human 5T4 (trophoblast glycoprotein), endogenous on the cell surface (human, UniProt Q13641 32-420); experiment: flow cytometry (FL4H median), sdAb-Fc titrated on 5T4-positive T47D cells
T1 construct: also called TPBG; 5T4 oncofetal antigen
T1 sequence: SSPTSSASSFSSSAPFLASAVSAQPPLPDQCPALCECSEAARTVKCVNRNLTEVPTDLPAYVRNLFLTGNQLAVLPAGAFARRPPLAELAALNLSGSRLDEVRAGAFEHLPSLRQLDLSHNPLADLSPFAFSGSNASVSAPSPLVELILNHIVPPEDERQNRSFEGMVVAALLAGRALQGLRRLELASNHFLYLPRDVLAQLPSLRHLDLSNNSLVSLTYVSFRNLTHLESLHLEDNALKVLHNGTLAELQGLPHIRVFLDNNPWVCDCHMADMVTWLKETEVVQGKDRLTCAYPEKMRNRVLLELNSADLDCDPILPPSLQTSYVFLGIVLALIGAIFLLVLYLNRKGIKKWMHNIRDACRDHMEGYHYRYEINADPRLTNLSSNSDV
Experimental: (§1) Specificity and relative affinity were assessed for purified sdAb-Fcs on 5T4-expressing cells. Binding of 5T4-sdAb-Fc fusion proteins was assessed by flow cytometry using 5T4-expressing cells. A titration series of the fusion protein was incubated with the 5T4-expressing cell lines (approximately 2.5×10⁴ to 5×10⁴ cells/well) for 30 minutes at 4 degrees Celsius in FACS Buffer (PBS 1% BSA, 0.1% NaN₃ pH 7.4) in 96 well plates. Following three wash steps in FACS buffer, an APC-conjugated anti-human Fcγ specific secondary antibody (Jackson ImmunoResearch) was added and incubated for 30 minutes at 4 degrees Celsius. Following three additional wash steps in FACS buffer bound antibody was detected via flow cytometry (IQue Intellicyte).
(§2) Humanized variant of the 5T4 sdAbs were tested for their ability to bind 5T4 expressing cells substantially as described in Example 2, and binding was compared to the parental sdAb. 5T4 expressing T47D cells were used in these studies. Results are shown in FIGS. 2A-2F, which confirm binding of the humanized variants. In some cases, binding was increased compared to the parental sdAb.

[2] = target: T1, human 5T4 (trophoblast glycoprotein), …; experiment: as above; remark: listed apart in the source
Experimental: as §1, §2

[3] = target: T1, human 5T4 (trophoblast glycoprotein), …; experiment: flow cytometry (FL4), sdAb-Fc titrated on HEK-293 freestyle (293FS) cells endogenously expressing 5T4
Experimental: FIGS. 1A-B depict the ability of various single domain antibodies targeting 5T4 to bind cell surface 5T4. Binding was assessed by flow cytometry on HEK-293 freestyle cells endogenously expressing 5T4.
as §1

[4] = target: T1, human 5T4 (trophoblast glycoprotein), …; experiment: flow cytometry, sdAb-Fc on 5T4 expressing T47D cells
[5] = target: T1, human 5T4 (trophoblast glycoprotein), …; experiment: flow cytometry (FL4H median), sdAb-Fc titrated on 5T4-positive T47D cells; remark: listed apart in the source
Experimental: as §1, §2

EC50 (read off the curve) [1]: ~0.1 nM
B2: hz12E9v8 sdAb-Fc (Fc fusion)
chain: EVQLVESGGGEVQPGGSLRLSCAASRRPFSSKTMAWFRQAPGKEREFVAAVRWIGGATRYAESVKGRFTISRDNAINTVYLQMNSLKSEDTAVYYCAAGQAWGTKFTDYSDWGQGTLVTVKP
notes: Humanized variant of 12E9, linked to a human Fc; not shown: human Fc

EC50 (read off the curve) [5]: ~2 nM
B14: hz14B5v16 sdAb-Fc (Fc fusion)
chain: EVQLVESGGGEVQPGGSLRLSCAASERPFGTYAMGWFRQAPGKERDLVAAVSRNAGASQYGEFVKGRFTISRDNAKNTMYLQMSSLRAEDTAVYYCAARSAAYSRSSEVYTGKDEYYYWGQGTLVTVKP
notes: Humanized variant of 14B5, linked to a human Fc; not shown: human Fc

EC50 (read off the curve) [5]: ~2 nM
B15: hz14B5v12 sdAb-Fc (Fc fusion)
chain: EVQLVESGGGEVQPGGSLRLSCAASERPFGTYAMGWFRQAPGKERDLVAAVSRNAGASQYGESVKGRFSISRDNIKNTMYLQMSSLKPEDTAVYYCAARSAAYSRSSEVYTGKDEYYYWGQGTLVTVKP
notes: as for B14

EC50 (read off the curve) [5]: ~2 nM
B16: hz14B5v14 sdAb-Fc (Fc fusion)
chain: EVQLVESGGGEVQPGGSLRLSCAASERPFGTYAMGWFRQAPGKEREFVAAVSRNAGASQYAESVKGRFTISRDNAKNTMYLQMSSLRAEDTAVYYCAARSAAYSRSSEVYTGKDEYYYWGQGTLVTVKP
notes: as for B14

EC50 (read off the curve) [5]: ~2 nM
B17: hz14B5v15 sdAb-Fc (Fc fusion)
chain: EVQLVESGGGEVQPGGSLRLSCAASERPFGTYAMGWFRQAPGKERDLVAAVSRNAGASYYAESVKGRFTISRDNAKNTMYLQMSSLRAEDTAVYYCAARSAAYSRSSEVYTGKDEYYYWGQGTLVTVKP
notes: as for B14

EC50 (read off the curve) [5]: ~2 nM
B18: hz14B5v13 sdAb-Fc (Fc fusion)
chain: EVQLVESGGGEVQPGGSLRLSCAASERPFGTYAMGWFRQAPGKERETVAAVSRNAGASQYAESVKGRFTISRDNAKNTMYLQMSSLRAEDTAVYYCAARSAAYSRSSEVYTGKDEYYYWGQGTLVTVKP
notes: as for B14

EC50 (read off the curve) [5]: ~2 nM
B19: hz14B5v11 sdAb-Fc (Fc fusion)
chain: EVQLVESGGGEVQAGDSLTLSCAVSERPFGTYAMGWFRQAPGRERDLVAAVSRNAGASQYAESVKGRFTISRDNAKNTMYLQMSSLRAEDTAVYYCAARSAAYSRSSEVYTGKDEYYYWGQGTLVTVKP
notes: Humanized variant of 14B5, linked to a human Fc; also called hz14B511; not shown: human Fc

Further lines, the binder ahead of its results:

B1: hz12E9v5 sdAb-Fc (Fc fusion)
chain: EVQLVESGGGEVQPGGSLRLSCAASRRPFSSKTMAWFRQAPGKEREFVAAVRWIGGATRYTESVKGRFTISRDNAKNTLYLQMSSLRAEDTAVYYCAAGQAWGTKFTDYSDWGQGTLVTVKP
notes: as for B2
EC50 (read off the curve) [1]: ~0.1 nM

B3: hz12E9v7 sdAb-Fc (Fc fusion)
chain: EVQLVESGGGEVQPGGSLRLSCAASRRPFSSKTMAWFRQAPGKEREFVAAVRWIGGATRYTDSVKGRFSISKDNAKNTVYLQMSSLRAEDTAVYYCAAGQAWGTKFTDYSDWGQGTLVTVKP
notes: as for B2
EC50 (read off the curve) [1]: ~0.1 nM

B4: 16G10 sdAb-Fc (Fc fusion, not shown: a dimerising Fc or GST)
chain: QVQLLQSGGGLVQAGGSLILSCAVSGRPFSSSAMGWFRQAPGKERETVAAVSRNGGSSYYADFVKGRFTISRDNDKNTVYLQMNSLKPEDTAVYYCAARSAAYSRSSETYTEKHDYTYWGQGTQVTVKP
notes: Camelid derived sdAb tested as sdAb-Fc; also called L16G10
EC50 (read off the curve) [2]: ~0.9 nM
EC50 (read off the curve) [3]: ~1 nM

B5: hz16G10v9 sdAb-Fc (Fc fusion)
chain: EVQLVESGGGEVQPGGSLRLSCAASGRPFSSSAMGWFRQAPGKERETVAAVSRNGGSSYYAESVKGRFTISRDNDKNTVYLQMSSLRAEDTAVYYCAARSAAYSRSSETYTEKHDYTYWGQGTLVTVKP
notes: Humanized variant of 16G10, linked to a human Fc; not shown: human Fc
binding result [2]: binds

B6: hz16G10v7 sdAb-Fc (Fc fusion)
chain: EVQLVESGGGEVQPGGSLRLSCAASGRPFSSSAMGWFRQAPGKERETVAAVSRNTGSSYYAESVKGRFTISRDNAKNTVYLQMSSLRAEDTAVYYCAARSAAYSRSSETYTEKHDYTYWGQGTLVTVKP
notes: as for B5
binding result [4]: binds

B7: hz16G10v10 sdAb-Fc (Fc fusion)
chain: EVQLVESGGGEVQPGGSLRLSCAASGRPFSSSAMGWFRQAPGKERETVAAVSRNAGSSYYADFVKGRFTISRDNAKNTVYLQMSSLRAEDTAVYYCAARSAAYSRSSETYTEKHDYTYWGQGTLVTVKP
notes: as for B5
binding result [4]: binds

B8: 14B5 sdAb-Fc (Fc fusion, not shown: a dimerising Fc or GST)
chain: QVQLVQSGGGLVQAGDSLTLSCAVSERPFGTYAMGWFRQAPGRERDLVAAVSRNGGASQYGDSVKGRFSISRDNIKNTMYLQMNSLKPEDTAVYYCAARSAAYSRSSEVYTGKDEYYYWGQGTQVTVKP
notes: Camelid derived sdAb tested as sdAb-Fc; also called L14B5
EC50 (read off the curve) [2]: ~0.4 nM
EC50 (read off the curve) [5]: ~0.8 nM
EC50 (read off the curve) [3]: ~0.5 nM

B9: 14F4 sdAb-Fc (Fc fusion, not shown: a dimerising Fc or GST)
chain: QVQLQESGGGLMQAGDSLRLSCVVSGVTWNSYTMAWFRQAPGKEREFVAAIRWTVDTTYYADFVKGRFTISRDYAKKTMYLQMNNLKPEDAAVYYCAVGRKWPKADDYWGQGTLVTVKP
notes: Camelid derived sdAb tested as sdAb-Fc
EC50 (read off the curve) [3]: ~1 nM

B10: 4D3 sdAb-Fc (Fc fusion, not shown: a dimerising Fc or GST)
chain: QVQLQESGGGLVQAGGSLRLSCAASRRPFSSKTMAWFRQTPGKEREFVAAVRWIGGATRYTDSVKGRFSISKDNAINTVYLQTNSLKSEDTAVYYCAAGQTWGTKFTDYSDWGQGTLVTVKP
notes: as for B9
EC50 (read off the curve) [3]: ~0.2 nM

B11: 12E9 sdAb-Fc (Fc fusion, not shown: a dimerising Fc or GST)
chain: QVQLVQSGGGLVQAGGSLRLSCAASRRPFSSKTMAWFRQTPGKEREFVAAVRWIGGATRYTDSVKGRFSISKDNAINTVYLQMNSLKSEDTAVYYCAAGQAWGTKFTDYSDWGQGTQVTVKP
notes: Camelid derived sdAb tested as sdAb-Fc; also called L12E9; 12E9-Fc
EC50 (read off the curve) [2]: ~0.2 nM
EC50 (read off the curve) [1]: ~0.1 nM
EC50 (read off the curve) [3]: ~0.1 nM

B12: 7E1 sdAb-Fc (Fc fusion, not shown: a dimerising Fc or GST)
chain: QVQLVQSGGGLVQAGASLRLSCVASGRTRSLRTMAWFRQAPGKERIFVAAISWRSDSTYYADSVKGRFTISRDNAKNTAYLQMNTLKPEDTAVYYCAAGGGWLATTPDEYTYWGQGTLVTVKP
notes: as for B9
EC50 (read off the curve) [3]: ~0.2 nM

B13: hz14B5v2 sdAb-Fc (Fc fusion)
chain: EVQLVESGGGEVQPGGSLRLSCAASERPFGTYAMGWFRQAPGKERDLVAAVSRNGGASQYAESVKGRFTISRDNAKNTLYLQMSSLRAEDTAVYYCAARSAAYSRSSEVYTGKDEYYYWGQGTLVTVKP
notes: as for B14
binding result [4]: binds

B20: hz14B5v20 sdAb-Fc (Fc fusion)
chain: EVQLVESGGGEVQPGGSLRLSCAASGRPFSSYAMGWFRQAPGKERDLVAAVSRNAGASYYAESVKGRFTISRDNAKNTVYLQMSSLRAEDTAVYYCAARSAAYSRSSEVYTGKDEYYYWGQGTLVTVKP
notes: as for B14
binding result [4]: binds

B21: hz14B5v19 sdAb-Fc (Fc fusion)
chain: EVQLVESGGGEVQPGGSLRLSCAASGRPFGTYAMGWFRQAPGKERDLVAAVSRNAGASYYAESVKGRFTISRDNAKNTVYLQMSSLRAEDTAVYYCAARSAAYSRSSEVYTGKDEYYYWGQGTLVTVKP
notes: as for B14
binding result [4]: binds

B22: hz14B5v18 sdAb-Fc (Fc fusion)
chain: EVQLVESGGGEVQPGGSLRLSCAASERPFSSYAMGWFRQAPGKERDLVAAVSRNAGASYYAESVKGRFTISRDNAKNTVYLQMSSLRAEDTAVYYCAARSAAYSRSSEVYTGKDEYYYWGQGTLVTVKP
notes: as for B14
binding result [4]: binds
